Results as given in patent US6207419A, “Thrombin inhibitory agents and methods of using same” (The University of North Carolina at Chapel Hill, priority 1999, dated 2001).

Legend:
thrombin [1] = assay: Thrombin inhibition in the absence of glycosaminoglycan; type: biochemical, human
Experimental: All assays were performed at room temperature in 96-well microtiter plates previously coated with 2 mg/mL BSA.
(§1) Residual thrombin activity was measured with 150 μM GlyProArg-NA and 1 mg/mL pB in the absence of glycosaminoglycan, 2 mg/mL pB in the presence of heparin and 4 mg/mL in the presence of dermatan sulfate. Residual factor Xa activity was measured with 500 μM Spectrozyme FXa and 2mg/mL pB in the presence or absence of glycosaminoglycan. Residual chymotrypsin activity was measured with 150 μM AlaAlaProPhe-NA and residual trypsin activity was measured with 150 μM GlyProArg-NA.
(§2) Assays were performed at least in triplicate on two or more recombinant protein preparations.

[2] = test system: plasma-purified α-thrombin; assay: Thrombin inhibition with heparin before and after carboxypeptidase A digest; type: biochemical, human; conditions: 2 hr, room temperature, FIG. 3
Experimental: Forty ng of CPA was combined with approximately 1 μg of recombinant protein and incubated at room temperature. Following a 2-hr incubation at room temperature, 2 mM EDTA was added to quench CPA activity. Controls were run in which EDTA was added to the reaction prior to the addition of CPA. CPA digested proteins were then assayed according to previously mentioned procedures.

[3] = target: T1, plasma purified α-thrombin (Homo sapiens, UniProt P00734); assay: Thrombin inhibition in the presence of glycosaminoglycans (heparin or dermatan sulfate); type: biochemical; conditions: for maximal rate of thrombin inhibition in the presence of dermatan sulfate: dermatan sulfate at optimal concentration; for maximal rate of thrombin inhibition in the presence of heparin: heparin at optimal concentration
T1 construct: Human α-thrombin, HCII, and ATIII were purified in our laboratory from plasma; from tissue; host or cells: human plasma (purified in the authors' laboratory)
Experimental: (§3) Protease inhibition rates were determined as described previously (Rogers, S. J., Pratt, C. W., Whinna, H. C., and Church, F. C. (1992) J. Biol. Chem. 267(6), 3613-3617; Whinna, H. C., Choi, H. U., Rosenberg, L. C., and Church, F. C. (1993) J. Biol. Chem. 268, 3920-3924; Ciaccia, A. V., Cunningham, E. L., and Church, F. C. (1995) Protein Express. Purific. 6, 806-812; Ciaccia, A. V., Willemze, A. J., and Church, F. C. (1997) J. Biol. Chem. 272(2), 888-893). All assays were performed at room temperature in 96-well microtiter plates previously coated with 2 mg/mL BSA.
In the presence of glycosaminoglycans, 5 nM rHCII (wt, CHis6, CHis5 Pro, L444R, or L444R-CHis6) was incubated with 0.5 nM thrombin and 0-1 mg/mL heparin or 0-4 mg/mL dermatan sulfate or 10 nM rATIII (wt or CHis6) was incubated with 1 nM thrombin or factor Xa and 0-1 mg/mL heparin in the presence of 2 mg/mL BSA in HNPN, pH 7.4.
as §1, with “GlyProArg-NA. Substrate cleavage was measured by color development at […] on a Vmax Kinetic Microplate Reader (Molecular Devices).” for “GlyProArg-NA.”
(§4) Assays were performed at least in triplicate on two or more recombinant protein preparations. All inhibition studies were measured under pseudo-first order conditions where inhibitor [I] is at least ten-fold higher than enzyme (protease) [E], and second-order rate constants were calculated as described previously (Ciaccia, A. V., Cunningham, E. L., and Church, F. C. (1995) Protein Express. Purific. 6, 806-812; Ciaccia, A. V., Willemze, A. J., and Church, F. C. (1997) J. Biol. Chem. 272(2), 888-893).

α-thrombin = target: T2, α-thrombin (Homo sapiens, UniProt P00734); assay: Effect of hirugen on thrombin inhibition in the absence of glycosaminoglycan; type: biochemical; conditions: for rate constant of inhibition (k2) in the absence of peptide: no hirugen, no control peptide, FIG. 5
T2 construct: Human α-thrombin, HCII, and ATIII were purified in our laboratory from plasma; from tissue; host or cells: human plasma (purified in the authors' laboratory)
Experimental: as §1, §2

thrombin [4] = assay: Plasma-based thrombin inhibition assay; type: biochemical, human; conditions: 10 nM serpin
Experimental: The assay to evaluate rHCII (wt and rHCII-CHis6) in plasma was designed based on previously published methods (Tollefsen, D. M., and Pestka, C. A. (1985) Blood 66(4), 769-774; Griffith, M. J., Carraway, T., White, G. C., and Dombrose, F. A. (1983) Blood 61(1), 111-118). All assays were performed at room temperature in 96-well microtiter plates previously coated with 2 mg/mL BSA. This assay was performed using normal hemostasis reference plasma (REF), human antithrombin III-deficient plasma (DEF), or a 50:50 mixture of these plasmas (REF/DEF). Within the assay, 10 nM rHCII or rHCII-CHis6 was incubated for 15 sec with I nM thrombin and 1 μg/mL heparin or 50 μg/mL dermatan sulfate, in the presence of a 1:100 dilution of plasma. Residual thrombin activity was measured with 300 μM GPA and 2 mg/mL pB. Substrate cleavage was measured by color development at […] on a Vmax Kinetic Microplate Reader. Second order rate constants were measured at least in triplicate on two recombinant protein preparations as described in Example 4.

chymotrypsin = assay: Chymotrypsin inhibition in the absence of glycosaminoglycan; type: biochemical; conditions: pH 7.4, mean ± S.D.
Experimental: as §3
In the absence of glycosaminoglycan, 50-100 nM rHCII (wt, CHis6, CHis5 Pro, L444R, or L444R-CHis6) or rATIII (wt or CHis6) was incubated with 1 nM thrombin, 0.5 nM Factor Xa, 2 nM chymotrypsin, or 5 nM trypsin, in the presence of 1 mg/mL Polybrene (pB) (for thrombin and Factor Xa) and 2 mg/mL BSA in HNPN, pH 7.4.
as §1, with “GlyProArg-NA. Substrate cleavage was measured by color development at […] on a Vmax Kinetic Microplate Reader (Molecular Devices).” for “GlyProArg-NA.”
as §4

[5] = Heparin-Sepharose affinity chromatography; type: binding; conditions: NaCl gradient, 20 mM Hepes pH 7.4
Experimental: 100 μL of each fraction was aliquoted onto a 96-well microtiter plate and ELISA was performed. The peak elution ionic strength was determined by plotting 405 nm color development and NaCl concentration against the fraction number. All samples were run at least in triplicate using two or more protein preparations. Recombinant ATIII samples were run similarly to the HCII samples, except the elution gradient was run from 50 mM to 2 M NaCl.

[6] = hirugen 20 μM, absence of glycosaminoglycan

Molecule | change of heparin-dependent thrombin inhibition after CPA digest, in words [2] | dermatan sulfate concentration at maximal rate of thrombin inhibition [3] | maximal rate of thrombin inhibition in the presence of dermatan sulfate [3] | heparin concentration at maximal rate of thrombin inhibition [3] | maximal rate of thrombin inhibition in the presence of heparin [3] | rate constant of inhibition (k2) in the absence of peptide (α-thrombin) [M⁻¹ s⁻¹] | Heparin-Sepharose [NaCl], peak elution concentration [5] [mM] | rate of thrombin inhibition in the absence of glycosaminoglycan (thrombin [1]) | also measured
wt-rHCII: Human wild type recombinant heparin cofactor II expressed in the baculovirus expression system (protein, UniProt P05546 20-499, looked up) Heparin cofactor 2: GSKGPLDQLEKGGETAQSADPQWEQLNNKNLSMPLLPADFHKENTVTNDWIPEGEEDDDYLDLEKIFSEDDDYIDIVDSLSVSPTDSDVSAGNILQLFHGKSRIQRLNILNAKFAFNLYRVLKDQVNTFDNIFIAPVGISTAMGMISLGLKGETHEQVHSILHFKDFVNASSKYEITTIHNLFRKLTHRLFRRNFGYTLRSVNDLYIQKQFPILLDFKTKVREYYFAEAQIADFSDPAFISKTNNHIMKLTKGLIKDALENIDPATQMMILNCIYFKGSWVNKFPVEMTHNHNFRLNEREVVKVSMMQTKGNFLAANDQELDCDILQLEYVGGISMLIVVPHKMSGMKTLEAQLTPRVVERWQKSMTNRTREVLLPKFKLEKNYNLVESLKLMGIRMLFDKNGNMAGISDQRIAIDLFKHQGTITVNEEGTQATTVTTVGFMPLSTQVRFTVDRPFLFLIYEHRTSCLLFMGRVANPSRS | do not drastically change | approximately 500 μg/mL | 1.52±0.31×10^9 M^-1 min^-1 | 50 to 100 µg/mL | 9.29±2.8×10^8 M^-1 min^-1 | 253 | 350 | – | k2 × 10^4 (M^-1 min^-1), thrombin (thrombin [1]; pH 7.4, mean ± S.D.): 1.30 ± .19 × 10^4 (M^-1 min^-1); average dermatan sulfate concentration at which the maximal rate was measured (in parentheses), thrombin ([3]; Thrombin + dermatan sulfate, unit not printed in table (text b157: μg/mL)): 500; average heparin concentration at which the maximal rate was measured (in parentheses), thrombin ([3]; Thrombin + heparin, unit not printed in table (text b156: μg/mL)): 50; Inhibition Rate k2 × 10^8 (M^-1 min^-1), Thrombin + dermatan sulfate ([3]; maximal rate of dermatan sulfate curve, mean ± S.D.): 15.2 ± 3.1 × 10^8 (M^-1 min^-1); Inhibition Rate k2 × 10^8 (M^-1 min^-1), Thrombin + heparin ([3]; maximal rate of heparin curve, mean ± S.D.): 9.29 ± 2.8 × 10^8 (M^-1 min^-1); reduction of rate of thrombin inhibition by hirugen (α-thrombin; [6]): > 50%; Inhibition Rate k2 × 10^8 (M^-1 min^-1), thrombin in plasma (thrombin [4]; Dermatan Sulfate (50 μg/mL), 50:50 Mixture (REF/DEF) plasma 1:100): 5.8 ± .24 × 10^8 (M^-1 min^-1); Inhibition Rate k2 × 10^8 (M^-1 min^-1), thrombin in plasma (thrombin [4]; Dermatan Sulfate (50 μg/mL), ATIII Deficient (DEF) plasma 1:100): 6.5 ± .50 × 10^8 (M^-1 min^-1); Inhibition Rate k2 × 10^8 (M^-1 min^-1), thrombin in plasma (thrombin [4]; Dermatan Sulfate (50 μg/mL), Normal Reference (REF) plasma 1:100): 5.7 ± .45 × 10^8 (M^-1 min^-1); Inhibition Rate k2 × 10^8 (M^-1 min^-1), thrombin in plasma (thrombin [4]; Heparin (1 μg/mL), 50:50 Mixture (REF/DEF) plasma 1:100): 1.9 ± .050 × 10^8 (M^-1 min^-1); Inhibition Rate k2 × 10^8 (M^-1 min^-1), thrombin in plasma (thrombin [4]; Heparin (1 μg/mL), ATIII Deficient (DEF) plasma 1:100): .26 ± .050 × 10^8 (M^-1 min^-1); Inhibition Rate k2 × 10^8 (M^-1 min^-1), thrombin in plasma (thrombin [4]; Heparin (1 μg/mL), Normal Reference (REF) plasma 1:100): 22 ± .17 × 10^8 (M^-1 min^-1); k2 × 10^4 (M^-1 min^-1), chymotrypsin (chymotrypsin): 71.0 ± 12 × 10^4 (M^-1 min^-1)
rHCII-L444R-CHis6: HCII mutant that contains both L444R and a hexahistidine carboxyl tag (protein, UniProt P05546 20-499, looked up, variant L444R, C-terminal His6 tag) Heparin cofactor 2: GSKGPLDQLEKGGETAQSADPQWEQLNNKNLSMPLLPADFHKENTVTNDWIPEGEEDDDYLDLEKIFSEDDDYIDIVDSLSVSPTDSDVSAGNILQLFHGKSRIQRLNILNAKFAFNLYRVLKDQVNTFDNIFIAPVGISTAMGMISLGLKGETHEQVHSILHFKDFVNASSKYEITTIHNLFRKLTHRLFRRNFGYTLRSVNDLYIQKQFPILLDFKTKVREYYFAEAQIADFSDPAFISKTNNHIMKLTKGLIKDALENIDPATQMMILNCIYFKGSWVNKFPVEMTHNHNFRLNEREVVKVSMMQTKGNFLAANDQELDCDILQLEYVGGISMLIVVPHKMSGMKTLEAQLTPRVVERWQKSMTNRTREVLLPKFKLEKNYNLVESLKLMGIRMLFDKNGNMAGISDQRIAIDLFKHQGTITVNEEGTQATTVTTVGFMPRSTQVRFTVDRPFLFLIYEHRTSCLLFMGRVANPSRS | – | ~ 200 μg/mL | 8.81±0.20×10^8 M^-1 min^-1 | ~ 20 μg/mL | 2.47±0.35×10^8 M^-1 min^-1 | 35300 | 600 | 1.59±0.26×10^6 M^-1 min^-1 | rate of thrombin inhibition relative to rHCII-CHis6 (thrombin [1]): ~ 100 fold; rate of thrombin inhibition compared in words with the untagged serpin (thrombin [1]; comparator rHCII-L444R or wt-rATIII as in sentence): not significantly different; effect of hirugen on thrombin inhibition, in words (α-thrombin; [6]): less of an effect
rHCII-CHis5 Pro: Recombinant HCII mutant with a His5 Pro carboxyl-terminal tag; SEQ ID NO:7 (protein, His5 Pro C-terminal tag) MKHSLNALLIFLIITSAWGGSKGPLDQLEKGGETAQSADPQWEQLNNKNLSMPLLPADFHKENTVTNDWIPEGEEDDDYLDLEKIFSEDDDYIDIVDSLSVSPTDSDVSAGNILQLFHGKSRIQRLNILNAKFAFNLYRVLKDQVNTFDNIFIAPVGISTAMGMISLGLKGETHEQVHSILHFKDFVNASSKYEITTIHNLFRKLTHRLFRRNFGYTLRSVNDLYIQKQFPILLDFRTKVREYYFAEAQIADFSDPAFISKTNNHIMKLTKGLIKDALENIDPATQMMILNCIYFKGSWVNKFPVEMTHNHNFRLNEREVVKVSMMQTKGNFLAANDQELDCDILQLEYVGGISMLIVVPHKMSGMKTLEAQLTPRVVERWQKSMTNRTREVLLPKFKLEKNYNLVESLKLMGIRMLFDKNGNMAGISDQRIAIDLFKHQGTITVNEEGTQATTVTTVGFMPLSTQVRFTVDRPFLFLIYEHRTSCLLFMGRVANPSRSHHHHHP | does not change appreciably | – | – | 10 µg/mL | 1.87±0.37×10^9 M^-1 min^-1 | – | – | 32000 M⁻¹ min⁻¹ | rate of thrombin inhibition relative to wt-rHCII (thrombin [1]): ~ 2 fold
